Assay results published in patent US20180282719A1 (published 2018).
Positions count from the first letter of the chain named. One block for each binder: values may come before it.

What was measured:
[1] = target: T1, recombinant soluble human IL-6 receptor (SR344) (human, UniProt P08887 20-344, biotinylated (sites not given) where immobilized via streptavidin or used in phage ELISA); test: SPR Biacore T100, antibody on protein A/G chip, SR344 analyte, 37 C
T1 construct: also called soluble IL-6 receptor; membrane-type IL-6 receptor (when biotinylated and immobilized on the chip)
T1 sequence (looked up): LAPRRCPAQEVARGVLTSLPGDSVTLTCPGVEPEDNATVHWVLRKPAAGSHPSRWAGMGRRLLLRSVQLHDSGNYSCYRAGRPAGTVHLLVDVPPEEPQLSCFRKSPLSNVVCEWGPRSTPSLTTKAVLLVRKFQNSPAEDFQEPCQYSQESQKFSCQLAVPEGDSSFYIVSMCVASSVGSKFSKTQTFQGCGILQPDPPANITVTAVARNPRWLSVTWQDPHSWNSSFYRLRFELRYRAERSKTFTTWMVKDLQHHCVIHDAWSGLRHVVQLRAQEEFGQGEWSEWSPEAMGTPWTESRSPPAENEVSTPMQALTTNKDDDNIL
Protocol: Kinetic analyses of antigen-antibody reactions at pH 5.8 and pH 7.4 were carried out using a Biacore™ T100 surface plasmon resonance system (GE Healthcare) on the four antibodies: humanized PM1 antibody (WT) and H3pI/L73, CLH5/L73, and H170/L82 produced in Examples 2 and 4 (buffer: 10 mM MES (pH 7.4 or pH 5.8), 150 mM NaCl, and 0.05% TWEEN® 20 (polyoxyethelene sorbitan monolaurate)). Various antibodies were bound onto a sensor chip immobilized with recomb-protein A/G (Pierce) by amine coupling. SR344 adjusted to concentrations of 9.8 to 400 nM was injected to the chip as an analyte. […] All the measurements were carried out at 37° C. Association rate constants kₐ (1/Ms) and dissociation rate constants kd (1/s) were calculated using Biacore T100™ Evaluation Software (GE Healthcare), and dissociation constants KD (M) were calculated on the basis of those values (Table 5). Moreover, the ratio of the affinities at pH 5.8 and pH 7.4 were calculated for each clone to evaluate pH-dependent binding. All the measurements were carried out at 37° C.

[2] = target: T1, recombinant soluble human IL-6 receptor …; test: SPR Biacore T100, integrated RU of SR344 bound over ten cycles, 37 C
Protocol: The produced pH-dependent binding clones described above were analyzed using a Biacore T100™ surface plasmon resonance system (GE Healthcare) for their ability to bind to the antigen SR344 multiple times at pH 5.8 and pH 7.4. More specifically, the analysis was carried out as follows. All the measurements were carried out at 37° C. First, the sample antibodies described above were bound onto a recomb-protein A/G (Pierce)-immobilized sensor chip by amine-coupling, where the mobile phase buffer was 10 mM MES (pH 5.8), 150 mM NaCl, and 0.05% TWEEN® 20 (polyoxyethelene sorbitan monolaurate) (step 1). SR344 adjusted to a concentration of about 40 nM was injected as an analyte for 3 minutes at pH 7.4 and allowed to bind (the buffer for injected SR344 was 10 mM MES (pH 7.4), 150 mM NaCl, and 0.05% TWEEN® 20 (polyoxyethelene sorbitan monolaurate)) (step 2). Subsequently, the injection of SR344 was discontinued and a mobile phase of pH 5.8 was allowed to flow for about 70 seconds to expose the antibody/SR344 complex under acidic conditions (step 3). Ten sets of this binding (step 2)/acidity exposure (step 3) process were continuously repeated to observe the sensorgram in real-time, which is shown in FIG. 11. […] In the 10-set repetition of the binding (step 2) and acidic exposure (step 3), almost all H170/L82 and CLH5/L73 antibodies were able to bind to new antigens in each set. […]

[3] = target: T1, recombinant soluble human IL-6 receptor …; test: SPR Biacore T100, biotinylated SR344 on streptavidin chip (model of membrane-type IL-6 receptor), antibody as analyte, 37 C
Protocol: (§1) Binding to the membrane-type IL-6 receptor was evaluated by evaluating binding to the IL-6 receptor immobilized on a sensor chip. SR344 was biotinylated in accordance with a method known among persons with ordinary skill in the art, and the biotinylated SR344 was immobilized on the sensor chip via streptavidin using the affinity between streptavidin and biotin. All the measurements were carried out at 37° C. The mobile phase buffer was 10 mM MES (pH 5.8), 150 mM NaCl and 0.05% TWEEN® 20 (polyoxyethelene sorbitan monolaurate).
(§2) The pH-dependently-binding clones were injected under the condition of pH 7.4 to allow them to bind to SR344, and then, the pH-dependent dissociation of each clone at the pH of the mobile phase, pH 5.8, was observed. The results are shown in FIG. 21 (results for Fv1-M71, Fv1-M73, Fv3-M71, and Fv3-M73 are shown in FIG. 21, while results for other clones are shown in FIGS. 17 and 19). Analyses were carried out in the same manner as in Example 10 and the pH dependencies of the dissociation rate constants of all of the eleven types of clones are shown in Table 12.

[4] = target: T1, recombinant soluble human IL-6 receptor …; test: SPR Biacore T100, biotinylated SR344 on streptavidin chip (model of membrane-type IL-6 receptor), antibody as analyte, bound at pH 7.4, dissociation at pH 5.8, 37 C
Protocol: as §1, §2

[5] = target: T1, recombinant soluble human IL-6 receptor …; test: SPR Biacore T100, biotinylated SR344 on streptavidin chip (model of membrane-type IL-6 receptor), antibody as analyte, bound at pH 7.4, dissociation at pH 7.4, 37 C
Protocol: as §1, §2

pH-dependent binding (affinity ratio) relative to WT [1]: 15 fold
B1: H3pI/L73 (antibody, IgG1, V domains shown)
VH: QVQLQESGPGLVKPSETLSLTCAVSGHSISHDHAHSWVRQPPGEGLEWIGYISYSGITNYNPSLKGRVTISRDTSKNQFSLKLSSVTAADTAAYYCARSLARTTAMDYWGEGTLVTVSS
VL: DIQMTQSPSSLSASVGDSVTITCQASQHISSHLNWYQQKPGKAPELLIYYGSHLHSGVPSRFSGSGSGTDFTFTISSLEAEDAATYYCGQGNRLPYTFGQGTKVEIE
notes: tested as IgG1; also called H3pI/L73-IgG1; H3pl/L73

pH-dependent binding (affinity ratio) relative to WT [1]: > 15 fold
total amount of antigen bound over ten cycles relative to WT [2]: ~4 fold
B2: H170/L82 (antibody, IgG1, V domains shown)
VH: B1 VH with D32H, N59H, S63H, S99V, T103I, Y108H
VL: B1 VL with H28D
notes: expressed and purified as IgG (IgG1); also called H170/L82-IgG1

kd (pH 5.8)/kd (pH 7.4) [3]: 5.56
koff [4]: 0.0026 s⁻¹
koff [5]: 0.00047 s⁻¹
B3: Fv4-IgG1 (antibody)
heavy: not shown
light: DIQMTQSPSSLSASVGDSVTITCQASTDISSHLNWYQQKPGKAPELLIYYGSHLLSGVPSRFSGSGSGTDFTFTISSLEAEDAATYYCGQGNRLPYTFGQGTKVEIERTVAAPSVFIFPPSDEQLKSGTASVVCLLNNFYPREAKVQWKVDNALQSGNSQESVTEQDSKDSTYSLSSTLTLSKADYEKHKVYACEVTHQGLSSPVTKSFNRGEC
notes: VH3-IgG1 / VL3-CK
